Assay results as given in patent US20260234255A1 (Genmab, published 2026).

Legend:
[1] = target: T1, cynomolgus monkey (Macaca fascicularis) CD30 (cynomolgus monkey, UniProt P28908 19-595 (human entry)); assay: flow cytometry, HEK293 cells transfected with mfCD30
T1 construct: also called mfCD30
T1 chain: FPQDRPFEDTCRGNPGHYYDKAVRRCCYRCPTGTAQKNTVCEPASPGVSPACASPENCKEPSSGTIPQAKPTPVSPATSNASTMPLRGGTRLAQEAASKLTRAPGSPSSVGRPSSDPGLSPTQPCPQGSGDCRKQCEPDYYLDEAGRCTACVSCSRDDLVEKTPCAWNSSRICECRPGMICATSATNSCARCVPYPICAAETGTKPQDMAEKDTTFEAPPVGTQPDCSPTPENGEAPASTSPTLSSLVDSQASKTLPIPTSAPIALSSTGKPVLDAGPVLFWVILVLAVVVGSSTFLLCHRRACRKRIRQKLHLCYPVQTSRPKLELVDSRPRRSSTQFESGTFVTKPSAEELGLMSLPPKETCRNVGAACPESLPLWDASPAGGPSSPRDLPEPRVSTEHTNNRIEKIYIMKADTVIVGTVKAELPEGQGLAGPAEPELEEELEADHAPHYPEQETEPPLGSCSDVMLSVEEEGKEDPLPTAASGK
Method: Cells (3×10⁴ cells/well) were incubated in polystyrene 96-well round-bottom plates (Thermo Scientific, cat. no. 163320) with serial dilutions of antibodies (ranging from 0.0002 to 50 μg/mL in 4-fold dilution steps) in 50 μL staining buffer at 4° C. for 30 min. Experiments were performed in technical duplicate. After washing twice in staining buffer, cells were incubated in 50 μL secondary antibody at 4° C. for 30 min. As a secondary antibody, R-PE-conjugated goat-anti-human IgG (Jackson ImmunoResearch, UK; cat. no. 109⁻¹¹⁶-098) diluted 1:200 in staining buffer was used. Cells were washed twice in staining buffer, resuspended in 30 μL staining buffer containing 0.4% EDTA and the ToPro-3 viability marker (Invitrogen, cat. no. T3605) diluted 1:10,000. Cells were analyzed on an iQue Screener (Intellicyt Corporation, USA). Binding curves were analyzed using non-linear regression (sigmoidal dose-response with variable slope) using GraphPad Prism V9.0.0 software (GraphPad Software, San Diego, CA, USA).

human CD30 [2] = target: T2, human CD30 (human, UniProt P28908 19-595); assay: flow cytometry, HDLM-2 cells
T2 construct: also called huCD30; TNFRSF8
T2 sequence: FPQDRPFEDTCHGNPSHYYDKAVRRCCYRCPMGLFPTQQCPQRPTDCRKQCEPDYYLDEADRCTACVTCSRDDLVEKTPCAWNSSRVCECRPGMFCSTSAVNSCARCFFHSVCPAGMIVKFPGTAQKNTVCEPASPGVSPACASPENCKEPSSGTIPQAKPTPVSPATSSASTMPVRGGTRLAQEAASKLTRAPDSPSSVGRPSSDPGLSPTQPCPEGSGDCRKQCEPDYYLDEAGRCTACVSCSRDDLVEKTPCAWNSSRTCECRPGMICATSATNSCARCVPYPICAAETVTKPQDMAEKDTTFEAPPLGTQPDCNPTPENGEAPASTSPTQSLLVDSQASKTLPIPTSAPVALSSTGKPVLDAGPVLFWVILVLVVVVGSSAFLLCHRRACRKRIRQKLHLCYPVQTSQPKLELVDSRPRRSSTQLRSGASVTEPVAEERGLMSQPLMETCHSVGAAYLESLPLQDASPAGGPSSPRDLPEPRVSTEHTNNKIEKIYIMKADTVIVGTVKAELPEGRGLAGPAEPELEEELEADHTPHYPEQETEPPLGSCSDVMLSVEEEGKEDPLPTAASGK
Method: (§1) Binding of CD3×CD30 bispecific antibodies to two CD30-expressing human tumor cell lines SU-DHL-1 (ALCL; ATCC, cat. no. ACC 356) and HDLM-2 (HL; ATCC, cat. no. CRL-2965) was analyzed […] by flow cytometry.
(§2) Cells (3×10⁴ cells/well) were incubated in polystyrene 96-well round-bottom plates (Greiner bio-one, cat. no. 650180) with serial dilutions of antibodies (range 0.0046 to 10 μg/mL in 3-fold dilution steps) in 50 μL staining buffer at 4° C. for 30 min. After washing twice in staining buffer, cells were incubated with 50 μL secondary antibody at 4° C. for 30 min. […] Next, cells were washed twice in staining buffer, resuspended in 100 μL staining buffer supplemented with TO-PRO-3 iodide (Thermo Fisher Scientific; cat. no. T3605; 1:8000 dilution) and analyzed on a FACSCelesta flow cytometer (BD Biosciences, USA). Live cells were gated based on FSC/SSC and absence of TOPRO-3 staining. Binding curves were analyzed by non-linear regression of log-transformed data (sigmoidal dose-response with variable slope, four parameters) using GraphPad Prism V7.02 software (GraphPad Software, San Diego, CA, USA).

[3] = target: T3, rhesus monkey (Macaca mulatta) CD30 (rhesus monkey, UniProt P28908 19-595 (human entry)); assay: flow cytometry, Expi293F cells transfected with rhesus monkey CD30
T3 construct: also called mmCD30
T3 chain: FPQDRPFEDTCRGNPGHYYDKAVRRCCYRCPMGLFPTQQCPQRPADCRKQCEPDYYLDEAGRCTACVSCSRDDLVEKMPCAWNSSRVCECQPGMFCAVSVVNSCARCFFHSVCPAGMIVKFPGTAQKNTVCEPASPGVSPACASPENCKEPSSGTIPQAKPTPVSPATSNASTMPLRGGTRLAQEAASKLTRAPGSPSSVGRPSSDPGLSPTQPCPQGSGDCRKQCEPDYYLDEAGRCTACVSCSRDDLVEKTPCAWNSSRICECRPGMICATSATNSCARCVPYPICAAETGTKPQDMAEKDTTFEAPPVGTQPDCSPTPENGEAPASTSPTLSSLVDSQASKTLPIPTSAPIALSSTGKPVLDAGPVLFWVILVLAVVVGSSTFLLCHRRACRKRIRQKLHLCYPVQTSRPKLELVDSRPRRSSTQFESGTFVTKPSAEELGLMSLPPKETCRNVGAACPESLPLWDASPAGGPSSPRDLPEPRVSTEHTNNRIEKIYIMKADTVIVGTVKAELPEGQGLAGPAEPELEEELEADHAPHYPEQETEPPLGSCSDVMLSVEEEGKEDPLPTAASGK

human CD30 [4] = target: T2, human CD30; assay: flow cytometry, SU-DHL-1 cells
Method: as §1, §2

human CD30 [5] = target: T2, human CD30; assay: flow cytometry, Expi293F cells transfected with human CD30
Method: Cells (3×10⁴ cells/well) were incubated in polystyrene 96-well round-bottom plates (Greiner bio-one, cat. no. 650180) with serial dilutions of antibodies (ranging from 0.005 to 10 μg/mL in 3-fold dilution steps) in 100 μL staining buffer at 4° C. for 30 min. Experiments were performed in technical duplicate. After washing twice in staining buffer, cells were incubated in 50 μL secondary antibody at 4° C. for 30 min. As a secondary antibody, R-PE-conjugated goat-anti-human IgG (Jackson ImmunoResearch, UK; cat. no. 109⁻¹¹⁶-098) diluted 1:400 in staining buffer was used. Cells were washed twice in staining buffer, resuspended in 30 μL staining buffer containing 0.4% EDTA and analyzed on an iQue Screener (Intellicyt Corporation, USA). Binding curves were analyzed using non-linear regression (sigmoidal dose-response with variable slope) using GraphPad Prism V9.0.0 software (GraphPad Software, San Diego, CA, USA).

human CD30 [6] = target: T2, human CD30; assay: flow cytometry, L-82 cells
human CD30 [7] = target: T2, human CD30; assay: flow cytometry, L-1236 cells
human CD30 [8] = target: T2, human CD30; assay: flow cytometry, KI-JK cells
human CD30 [9] = target: T2, human CD30; assay: flow cytometry, SR-786 cells
human CD30 [10] = target: T2, human CD30; assay: flow cytometry, NCEB-1 cells
human CD30 [11] = target: T2, human CD30; assay: flow cytometry, SUP-M2 cells
human CD30 [12] = target: T2, human CD30; assay: flow cytometry, DEL cells
human CD30 [13] = target: T2, human CD30; assay: flow cytometry, L-540 cells
human CD30 [14] = target: T2, human CD30; assay: flow cytometry, DL-40 cells
human CD30 [15] = target: T2, human CD30; assay: flow cytometry, HDLM-2 cells
human CD30 [16] = target: T2, human CD30; assay: flow cytometry, KM-H2 cells
human CD30 [17] = target: T2, human CD30; assay: flow cytometry, HH cells
Method: as §2

B1: bsG1-huCD3-FEALxb12-FERR (bispecific antibody, human IgG1, kappa, lambda)
heavy 1: not shown
light 1: not shown
heavy 2: QVQLVQSGAEVKKPGASVKVSCQASGYRFSNFVIHWVRQAPGQRFEWMGWINPYNGNKEFSAKFQDRVTFTADTSANTAYMELRSLRSADTAVYYCARVGPYSWDDSPQDNYYMDVWGKGTTVIVSSASTKGPSVFPLAPSSKSTSGGTAALGCLVKDYFPEPVTVSWNSGALTSGVHTFPAVLQSSGLYSLSSVVTVPSSSLGTQTYICNVNHKPSNTKVDKRVEPKSCDKTHTCPPCPAPEFERGPSVFLFPPKPKDTLMISRTPEVTCVVVDVSHEDPEVKFNWYVDGVEVHNAKTKPREEQYNSTYRVVSVLTVLHQDWLNGKEYKCKVSNKALPAPIEKTISKAKGQPREPQVYTLPPSREEMTKNQVSLTCLVKGFYPSDIAVEWESNGQPENNYKTTPPVLDSDGSFFLYSRLTVDKSRWQQGNVFSCSVMHEALHNHYTQKSLSLSPG
light 2: EIVLTQSPGTLSLSPGERATFSCRSSHSIRSRRVAWYQHKPGQAPRLVIHGVSNRASGISDRFSGSGSGTDFTLTITRVEPEDFALYYCQVYGASSYTFGQGTKLERKRTVAAPSVFIFPPSDEQLKSGTASVVCLLNNFYPREAKVQWKVDNALQSGNSQESVTEQDSKDSTYSLSSTLTLSKADYEKHKVYACEVTHQGLSSPVTKSFNRGEC
notes: Monovalent CD3 control antibody
binding result [1]: no binding (tested: 0.0002 to 50 µg/mL)

B2: IgG1-CD30-T408-FEAR (antibody, V domains shown)
VH: QVQLQQPGAELVRPGASVKLSCKASGYTFTSYWINWVKQRPGQGLEWIGNIYPSDSYSNYNQKFKDKATLTVDKSSSTAYMQLSSPTSEDSAVYYCTLGSYWGQGTLVTVSA
VL: not shown
notes: Monospecific, bivalent parental antibody
EC50 (read off the curve) (human CD30 [2]): ~1 µg/mL
EC50 (read off the curve) [3]: ~0.4 µg/mL
EC50 (read off the curve) (human CD30 [4]): ~0.6 µg/mL
EC50 (read off the curve) (human CD30 [5]): ~0.2 µg/mL

B3: IgG1-CD30-MDX060-FERR (antibody)
heavy: QVQLQQWGAGLLKPSETLSLTCAVYGGSFSAYYWSWIRQPPGKGLEWIGDINHGGGTNYNPSLKSRVTISVDTSKNQFSLKLNSVTAADTAVYYCASLTAYWGQGSLVTVSSASTKGPSVFPLAPSSKSTSGGTAALGCLVKDYFPEPVTVSWNSGALTSGVHTFPAVLQSSGLYSLSSVVTVPSSSLGTQTYICNVNHKPSNTKVDKRVEPKSCDKTHTCPPCPAPEFERGPSVFLFPPKPKDTLMISRTPEVTCVVVDVSHEDPEVKFNWYVDGVEVHNAKTKPREEQYNSTYRVVSVLTVLHQDWLNGKEYKCKVSNKALPAPIEKTISKAKGQPREPQVYTLPPSREEMTKNQVSLTCLVKGFYPSDIAVEWESNGQPENNYKTTPPVLDSDGSFFLYSRLTVDKSRWQQGNVFSCSVMHEALHNHYTQKSLSLSPG
light: DIQMTQSPTSLSASVGDRVTITCRASQGISSWLTWYQQKPEKAPKSLIYAASSLQSGVPSRFSGSGSGTDFTLTISSLQPEDFATYYCQQYDSYPITFGQGTRLEIKRTVAAPSVFIFPPSDEQLKSGTASVVCLLNNFYPREAKVQWKVDNALQSGNSQESVTEQDSKDSTYSLSSTLTLSKADYEKHKVYACEVTHQGLSSPVTKSFNRGEC
notes: Monospecific, bivalent parental antibody; also called IgG1-huCD30-MDX060-FERR
EC50 (read off the curve) (human CD30 [6]): ~0.07 µg/mL
EC50 (read off the curve) (human CD30 [7]): ~0.04 µg/mL
EC50 (read off the curve) (human CD30 [8]): ~0.06 µg/mL
EC50 (read off the curve) (human CD30 [9]): ~0.1 µg/mL
EC50 (read off the curve) (human CD30 [10]): ~0.04 µg/mL
EC50 (read off the curve) (human CD30 [11]): ~0.03 µg/mL
EC50 (read off the curve) (human CD30 [12]): ~0.1 µg/mL
EC50 (read off the curve) (human CD30 [13]): ~0.3 µg/mL
EC50 (read off the curve) (human CD30 [14]): ~0.07 µg/mL
EC50 (read off the curve) (human CD30 [15]): ~0.06 µg/mL
EC50 (read off the curve) (human CD30 [16]): ~0.04 µg/mL
EC50 (read off the curve) (human CD30 [17]): ~0.1 µg/mL
